B1: pol30-Rad27E6: PCNA mutant evolved for Rad27, IDCL sequence DGDYDILKIREL (protein)
chain: MLEAKFEEASLFKRIIDGFKDCVQLVNFQCKEDGIIAQAVDDSRVLLVSLEIGVEAFQEYRCDHPVTLGMDLTSLSKILRCGNNTDTLTLIADNTPDSIILLFEDTKKDRIAEYSLKLMDGDYDILKIRELQYDSTLSLPSSEFSKIVRDLSQLSDSINIMITKETIKFVADGDIGSGSVIIKPFVDMEHPETSIKLEMDQPVDLTFGAKYLLDIIKGSSLSDRVGIRLSSEAPALFQFDLKSGFLQFFLAPKFNDEE
modifications: left off: Gal4 activation domain, end not stated, kept
B2: pol30-Pol32E5: PCNA mutant evolved for Pol32, IDCL sequence DADNDFLKISEL (protein)
chain: MLEAKFEEASLFKRIIDGFKDCVQLVNFQCKEDGIIAQAVDDSRVLLVSLEIGVEAFQEYRCDHPVTLGMDLTSLSKILRCGNNTDTLTLIADNTPDSIILLFEDTKKDRIAEYSLKLMDADNDFLKISELQYDSTLSLPSSEFSKIVRDLSQLSDSINIMITKETIKFVADGDIGSGSVIIKPFVDMEHPETSIKLEMDQPVDLTFGAKYLLDIIKGSSLSDRVGIRLSSEAPALFQFDLKSGFLQFFLAPKFNDEE
modifications: left off: Gal4 activation domain, end not stated, kept

Tests used:
Test in all cases: Yeast two hybrid (Y2H) analysis of PCNA-partner interaction
Format in all cases: binding
[1] = system: Msh6; conditions: YRG2 strain, growth on selective agar plates lacking histidine; growth similar to WT PCNA denoted as 1
How it was run: (§1)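 PCNA WT or mutants as bait against each partner as prey, cotransformed into yeast YRG2; interaction scored as growth on SC-Leu-Trp-His from 10-fold serial dilutions, 30°C, 3 d. Quantitative: generation time τ from OD600 growth curves in liquid SC-Leu-Trp-His, mean of ≥3 experiments.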

[2] = system: Pol32
How it was run: as §1

[3] = system: Rad27
How it was run: as §1

[4] = system: Rad30; conditions: YRG2 strain, growth on selective agar plates lacking histidine; growth similar to WT PCNA denoted as 1
How it was run: as §1

[5] = system: Ung1; conditions: YRG2 strain, growth on selective agar plates lacking histidine; growth similar to WT PCNA denoted as 1
How it was run: as §1

[6] = system: Cac1; parameters: key: ++: major increase in growth; +: moderate increase in growth; similar growth as the WT PCNA-expressing cells; -: minor decrease in growth; --: moderate decrease in growth; ---: major decrease in growth; conditions: spotting onto selective agar plates; PCNA fused to AD, partner to BD
[7] = system: Cdc9; parameters: key: ++: major increase in growth; +: moderate increase in growth; similar growth as the WT PCNA-expressing cells; -: minor decrease in growth; --: moderate decrease in growth; ---: major decrease in growth; conditions: spotting onto selective agar plates; PCNA fused to AD, partner to BD
[8] = system: Eco1; parameters: key: ++: major increase in growth; +: moderate increase in growth; similar growth as the WT PCNA-expressing cells; -: minor decrease in growth; --: moderate decrease in growth; ---: major decrease in growth; conditions: spotting onto selective agar plates; PCNA fused to AD, partner to BD
[9] = system: Msh3; parameters: key: ++: major increase in growth; +: moderate increase in growth; similar growth as the WT PCNA-expressing cells; -: minor decrease in growth; --: moderate decrease in growth; ---: major decrease in growth; conditions: spotting onto selective agar plates; PCNA fused to AD, partner to BD
[10] = system: Rrm3; parameters: key: ++: major increase in growth; +: moderate increase in growth; similar growth as the WT PCNA-expressing cells; -: minor decrease in growth; --: moderate decrease in growth; ---: major decrease in growth; conditions: spotting onto selective agar plates; PCNA fused to AD, partner to BD
[11] = YRG2 strain, growth on selective agar plates lacking histidine, growth similar to WT PCNA denoted as 1
[12] = footnote c: generation time in liquid selective media lacking histidine relative to cells expressing WT PCNA, average of at least 3 independent experiments

Row | Molecule | Binding of PCNA Mutants to Target Partners: Msh6 (Y2H) [1] | Binding of PCNA Mutants to Target Partners: Pol32 (Y2H) [2, 11] | Binding of PCNA Mutants to Target Partners: Rad27, fold increase or decrease (quantitative Y2H) [3, 12] | Binding of PCNA Mutants to Target Partners: Rad30 (Y2H) [4] | Binding of PCNA Mutants to Target Partners: Ung1 (Y2H) [5] | Y2H growth relative to WT PCNA-expressing strain: Cac1 [6] | Y2H growth relative to WT PCNA-expressing strain: Cdc9 [7] | Y2H growth relative to WT PCNA-expressing strain: Eco1 [8] | Y2H growth relative to WT PCNA-expressing strain: Msh3 [9] | Y2H growth relative to WT PCNA-expressing strain: Rrm3 [10] | Binding of PCNA Mutants to Target Partners: Pol32, fold increase or decrease (quantitative Y2H) [2, 12] | Binding of PCNA Mutants to Target Partners: Rad27 (Y2H) [3, 11]
1 | B1 | 1 | 1 | 1.5 ^c fold | 1 | 1 | + | WT | WT | WT | WT | – | –
2 | B2 | 1 | – | – | 1 | 1 | WT | WT | WT | WT | WT | 1.5 ^c fold | 1
